The values that follow come from patent US20180086841A1 (Merck Sharp & Dohme, published 2018).

Common to all, as to experiment: flow cytometry on CHO-K1 transfectants, left sub-column
Background: A flow cytometer gives signals particle by particle.

One assay deals with T1, K31A.
T1 construct: also called hCD27 K31A
T1 receptor chain: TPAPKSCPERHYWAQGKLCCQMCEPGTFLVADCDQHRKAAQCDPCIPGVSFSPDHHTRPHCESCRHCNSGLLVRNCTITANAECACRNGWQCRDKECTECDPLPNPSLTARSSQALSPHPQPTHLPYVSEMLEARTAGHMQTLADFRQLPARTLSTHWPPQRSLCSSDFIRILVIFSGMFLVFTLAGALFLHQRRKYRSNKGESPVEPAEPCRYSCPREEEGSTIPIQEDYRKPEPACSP

A further assay concerns the target T2, R93A.
T2 construct: also called hCD27 R93A
T2 receptor chain: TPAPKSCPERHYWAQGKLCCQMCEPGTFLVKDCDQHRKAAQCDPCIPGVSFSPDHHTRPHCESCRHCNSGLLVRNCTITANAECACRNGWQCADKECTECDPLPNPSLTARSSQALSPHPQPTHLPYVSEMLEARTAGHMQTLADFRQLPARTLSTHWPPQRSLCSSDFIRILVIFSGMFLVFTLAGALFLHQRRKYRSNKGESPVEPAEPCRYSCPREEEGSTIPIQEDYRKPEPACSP

The next assay addresses T3, P44A.
T3 construct: also called hCD27 P44A
T3 receptor chain: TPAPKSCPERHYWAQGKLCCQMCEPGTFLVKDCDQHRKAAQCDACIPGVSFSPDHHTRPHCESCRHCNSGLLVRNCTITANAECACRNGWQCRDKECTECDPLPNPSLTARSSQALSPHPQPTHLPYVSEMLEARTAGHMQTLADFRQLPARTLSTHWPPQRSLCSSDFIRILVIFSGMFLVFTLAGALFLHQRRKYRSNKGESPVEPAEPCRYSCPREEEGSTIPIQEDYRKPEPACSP

The next assay deals with T4, S63A.
T4 construct: also called hCD27 S63A
T4 receptor chain: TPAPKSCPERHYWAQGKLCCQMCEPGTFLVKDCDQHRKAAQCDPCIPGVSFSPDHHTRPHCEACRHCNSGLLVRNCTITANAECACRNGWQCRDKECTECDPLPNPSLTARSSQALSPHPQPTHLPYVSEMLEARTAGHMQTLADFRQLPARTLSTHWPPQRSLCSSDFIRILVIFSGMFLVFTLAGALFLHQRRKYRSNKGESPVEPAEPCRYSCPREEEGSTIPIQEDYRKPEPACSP

The target of a further assay is T5, E9A.
T5 construct: also called hCD27 E9A
T5 receptor chain: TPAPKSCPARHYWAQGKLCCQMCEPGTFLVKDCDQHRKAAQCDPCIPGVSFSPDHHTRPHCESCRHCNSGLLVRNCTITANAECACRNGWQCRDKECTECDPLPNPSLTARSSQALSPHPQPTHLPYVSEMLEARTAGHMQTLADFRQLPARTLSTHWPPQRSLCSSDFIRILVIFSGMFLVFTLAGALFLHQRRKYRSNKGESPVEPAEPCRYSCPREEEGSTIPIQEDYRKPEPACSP

For a further assay, the target named is T6, R10A.
T6 construct: also called hCD27 R10A
T6 receptor chain: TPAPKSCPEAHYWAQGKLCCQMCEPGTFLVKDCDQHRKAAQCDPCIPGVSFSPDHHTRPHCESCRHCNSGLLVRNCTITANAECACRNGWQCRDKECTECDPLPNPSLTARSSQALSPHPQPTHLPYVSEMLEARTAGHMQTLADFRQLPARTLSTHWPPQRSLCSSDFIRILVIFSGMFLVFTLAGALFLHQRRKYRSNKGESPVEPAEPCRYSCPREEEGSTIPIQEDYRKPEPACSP

The target in another assay is T7, I46A.
T7 construct: also called hCD27 I46A
T7 receptor chain: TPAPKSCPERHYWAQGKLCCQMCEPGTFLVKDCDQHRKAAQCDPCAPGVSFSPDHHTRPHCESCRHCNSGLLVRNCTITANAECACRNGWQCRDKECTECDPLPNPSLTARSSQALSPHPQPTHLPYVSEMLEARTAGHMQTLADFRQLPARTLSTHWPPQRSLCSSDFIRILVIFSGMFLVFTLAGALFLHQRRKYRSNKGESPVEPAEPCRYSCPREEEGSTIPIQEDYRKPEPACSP

The target of the next assay is T8, V30A.
T8 construct: also called hCD27 V30A
T8 receptor chain: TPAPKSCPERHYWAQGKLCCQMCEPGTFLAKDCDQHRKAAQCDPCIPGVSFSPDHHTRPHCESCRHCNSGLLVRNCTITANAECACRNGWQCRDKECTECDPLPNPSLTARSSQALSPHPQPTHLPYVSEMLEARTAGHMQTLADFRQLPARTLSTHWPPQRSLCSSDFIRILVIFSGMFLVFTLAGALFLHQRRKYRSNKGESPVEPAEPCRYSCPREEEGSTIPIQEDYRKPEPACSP

The target of the next assay is T9, K17A.
T9 construct: also called hCD27 K17A
T9 receptor chain: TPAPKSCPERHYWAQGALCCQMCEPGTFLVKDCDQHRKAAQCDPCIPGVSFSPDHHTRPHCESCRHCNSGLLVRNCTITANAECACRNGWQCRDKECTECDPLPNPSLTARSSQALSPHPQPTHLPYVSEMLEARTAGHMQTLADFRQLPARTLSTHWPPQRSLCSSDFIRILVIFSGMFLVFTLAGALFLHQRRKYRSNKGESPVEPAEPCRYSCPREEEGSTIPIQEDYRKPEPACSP

The target of another assay is T10, Q15A.
T10 construct: also called hCD27 Q15A
T10 receptor chain: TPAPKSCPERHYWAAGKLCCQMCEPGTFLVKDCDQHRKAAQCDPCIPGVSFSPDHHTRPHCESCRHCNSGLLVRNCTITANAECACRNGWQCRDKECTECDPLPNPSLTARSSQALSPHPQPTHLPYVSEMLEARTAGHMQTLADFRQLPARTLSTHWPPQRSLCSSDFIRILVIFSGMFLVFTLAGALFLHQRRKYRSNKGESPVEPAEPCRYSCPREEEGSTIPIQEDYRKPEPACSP

Procedure for E9A: (§1) The hCD27 variants that were tested are listed. Amino acids correspond to the UniProt P26842-1 sequence. Amino acids 1-20 constitute the signal peptide. Binding is expressed as the geometric mean of the FITC signal, relative to antibody binding to hCD27, which was set at 100%.
(§2) The ability of several anti-hCD27 antibodies to bind to a series of hCD27 alanine mutants was determined using CHO-K1 cells, transiently transfected pCI-neo empty vector, pCI-neo.hCD27 and several pCI-neo.CD27Ala mutant constructs.
(§3) Detached cells were transferred to 96 wells round-bottomed well plates at approximately 1.2×10⁵ cells/well. After spinning down the cells, discarding the supernatants and re-suspending the cells in the residual volume, the primary antibodies were added and incubated for 30 minutes at 4° C. Cells were washed three times with DPBS/BSA 1%, followed by centrifugation, discarding of the supernatants and re-suspension in the residual volume. […] After washing once, antibody binding was detected using the HTS plate reader (FACS Canto II) and FlowJo software for data analysis. Debris, dead cells and doublets were excluded from the analysis. Binding was expressed as the geometric mean of the FITC signal, relative to antibody binding to hCD27, which was set at 100%.
Procedure for I46A: as §1, §2, §3
Procedure for K17A: as §1, §2, §3
Procedure for K31A: as §1, §2, §3
Procedure for P44A: as §1, §2, §3
Procedure for Q15A: as §1, §2, §3
Procedure for R10A: as §1, §2, §3
Procedure for R93A: as §1, §2, §3
Procedure for S63A: as §1, §2, §3
Procedure for V30A: as §1, §2, §3

B1: hCD27.131A (mouse parental 131A) (antibody, mouse IgG1, V domains shown)
VH: QIQLVQSGPELKKPGETVKISCKASGYTFTNYGMNWVKQAPGKGLKWMGWINTNTGEPTYAEEFKGRFAFSLETSATTAYLQINNLKNEDTATYFCAREGDAMDYWGQGTSVTVSS
VL: QIVLTQSPAIMSASPGEKVTMTCSASSSVSYMHWYQQKSGTSPKRWIYDTSKLASGVPARFSGSGSGTSYSLTISSMEAEDAATYYCQQWNSYPFTFGSGTKLEIK
notes: Mouse IgG1 antibody; also called mouse hCD27.131A
On to B1, for which the “binding, WT hCD27 = 100 (GM FITC)” value came out at 203% with K31A; 125% with R93A; 158% with P44A; 162% with S63A; 96.7% with E9A; 103% with R10A. Also, the “binding, WT hCD27 = 100 (GM FITC)” value with I46A turned out to be 132%; with V30A it was 170%; with K17A it was 103%; in the assay with Q15A, 99.6%.
